Publication PMC10402242

Biological target: nuclear transport factor 2 (NUTF2) (human (endogenous in MCF-7)) (UniProt P61970)
Assay: native MS; native top-down proteomics: whole cell lysates of MCF-7 and MCF-7-EGFR (EGFR-overexpressing) cells fractionated by native SEC, concentrated with molecular weight cutoff filters, direct ESI infusion FAIMS-MSn with HCD, Orbitrap detection; endogenous assemblies

Chain of nuclear transport factor 2 (NUTF2) (P61970 whole entry): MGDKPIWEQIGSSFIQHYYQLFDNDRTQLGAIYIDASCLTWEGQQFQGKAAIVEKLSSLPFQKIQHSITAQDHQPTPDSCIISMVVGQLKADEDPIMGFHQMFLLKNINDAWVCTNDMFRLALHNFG

Substance: nuclear transport factor 2 (NUTF2) (from UniProt P61970 1-127) (natural protein; monomeric proteoforms include acetylated, methylated and dimethylated forms (sites K4, K55, K63); monomeric proteoforms include acetylated, methylated and dimethylated forms (sites K4, K55, K63); other documents disagree on this pair)
- stoichiometry N: 2
